From the RNAGym collection of RNA variant scans (doi:10.1073/pnas.2313332121)

B1: TPR t1 (parent)
chain: GACCAAUCUGCCCUCAGAGCUCGAGAACAUCUUCGGAUGCAGAGGAGGCAGGCUUCGGUGGCGCGAUAGCGCCAACGUCCUCAACCUCCAAUGCAUCCCACCACAUGAUGAUGCCUGAAGAGCCUUGGUUUUUUG

Variants of: B1
Test: polymerase ribozyme fitness, log enrichment relative to wild type (log ratio); higher = more active; in vitro selection for triplet polymerase activity
Procedure, shortened: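 Genotype fitness is the logarithm of its enrichment divided by wild-type enrichment, using inverse-variance-weighted averages of replicates. That logarithm is base 2. Enrichment was measured by Illumina sequencing of input and output libraries from one triplicate in vitro selection round, with frozen incubation at −7 °C, on PCR-built, transcribed mutant libraries of each subunit of a heterodimeric triplet polymerase ribozyme, retaining genotypes with ≥10 input reads and ≥1 read per output.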

| Variant | polymerase ribozyme fitness (log ratio) |
| --- | --- |
| A6G G69A C115A G120A | -1.22 |
| U7A U9C G45C C70U C89A C123A | -2.15 |
| A6G G113A | -0.703 |
| U7G G36U U96C C104U | -3.09 |
| U7C G113A | 0.595 |
| U7C C72A A83G | -0.327 |
| U7A U55G | -0.938 |
| U7A C8G A43C C53A G69U | -0.446 |
| A6U C53U G69U G128C | -0.945 |
| A6U C76G | -0.287 |
| A6U C49U G60U C94G G113A | -2.65 |
| U7G U78C | 0.451 |
| U7C C8A A27C C97U | -2.64 |
| A6U U9G G63C C104U C115U G117U | -1.31 |
| U7C A37U C73A | -0.516 |
| A6U G10U C13G C40U A41C G63U U78C C79A A121G | -4.13 |
| U7C G44A | -0.534 |
| U7A U32C | 0.304 |
| U7A C53U C73U C86U A90G G122A | -2.05 |
| U7A A66U C98U | -1.89 |
| U7A G10C G57U C88G | -2.78 |

| Variant | polymerase ribozyme fitness (log ratio) |
| --- | --- |
| U7A C64A | -4.63 |
| A6U C98A | -3.74 |
| A6U A18U C28U C70A C123G | -6.38 |
| A6U G17C U130A | -4.89 |
| U7G U55A G58A G63U C98A A105U G120A | -5.94 |
| U7A C56U G120U | 0.935 |
| U7C A43U G52A C53U C85A U87A | -4.57 |
| U7G U9A G10C A18G A29C | -4.02 |
| A6U C15U A26G C86U A100U G120A C123A U125G | -5.49 |
| A6U C70A A91G | -2.94 |
| A6U G44A G63C G113U | -5.44 |
| U7G C13A C49G U96C | -0.772 |
| A6U G71U C82G | -0.9 |
| A6G G10A C11U G61A A100U G128A | -2.69 |
| A6U C40U C56U G69C A121C | -6.3 |
| U7G G51C U55C C73A | -3.19 |
| A6G G51A A75U C88G U92C | -6.38 |
| U7A A43C U129G | -4.22 |
| A6U G61A C79G | -1.4 |
| A6U A16C C40U C70U C85G | -5.17 |
| U7C G47A G48A A90C U112C | -1.65 |

| Variant | polymerase ribozyme fitness (log ratio) |
| --- | --- |
| A6G U7G A37G G48U | 0.0457 |
| A6U A27U A46C G48A C53G C79G C82G G110C | -6.9 |
| U7G C80A C124A | -1.1 |
| U7G G47A C56A C70G | -5.1 |
| C8A A18C G60U | -1.62 |
| U7G G71U C97G G120U U132C | -3.27 |
| U7G U32A G39U G127C U130C | -5.02 |
| U7G A84C U112C A119U | 1.28 |
| A6U C62A | -1.01 |
| U7G C12U G36A C40A G45A G71U | -3.31 |
| A6U C22A C49U C72U | -5.16 |
| A6U C15A C56A A105C | -4.85 |
| U7A C8A C11U C34U G48U C53A C72A | -5.13 |
| A6U G17U C40U C76G | -3.15 |
| A6U G71A A83G | -1.85 |
| A6U C28G C72U C102U A103C | -7.04 |
| A6U C8G C73G C88A U92G C98A G113U | -6.38 |
| U7G U32A A46U G77A C104A A105U C123G | -4.45 |
| A6U C102A C123G | -0.023 |
| C8A A27G C56G U59G G113U | -4.68 |
| A6U G48A A91C C114A | -2.36 |

| Variant | polymerase ribozyme fitness (log ratio) |
| --- | --- |
| U7G G65U | -5.58 |
| U7G C20U | -1.37 |
| U7G A91U | -1.77 |
| A6U C12U C80U | -0.107 |
| A6U G58A U81A G110A A118C | -2.44 |
| U7A G36U G61U C124G | 0.266 |
| U7C G39A C124U | 0.776 |
| C8A A100U U116G U133A G135U | -0.711 |
| U7G A46U | -1.38 |
| U7G C73A U92A | -2.35 |
| U7A C70U C115A | 0.524 |
| A6U C72A | 0.375 |
| A6U C56G U129A | -2.48 |
| U7G C80U | 0.145 |
| U7G U9A A27U C72U U87A U126A | -3.36 |
| A6U U78A C115G U116G | -2.95 |
| U7G G52A U106C G122U U131G | -0.951 |
| A6U G48C | -0.598 |
| A6U U9G G63A C104U C115U G117U | -3.69 |
| U7G G77U | 0.185 |
| U7A C73G U116G | -2.7 |
